What was measured:
[1] = biological target: T1, NHis-Purβ (full-length) (Mus musculus, UniProt O35295 1-324); experiment: ssDNA-binding ELISA
T1 sequence: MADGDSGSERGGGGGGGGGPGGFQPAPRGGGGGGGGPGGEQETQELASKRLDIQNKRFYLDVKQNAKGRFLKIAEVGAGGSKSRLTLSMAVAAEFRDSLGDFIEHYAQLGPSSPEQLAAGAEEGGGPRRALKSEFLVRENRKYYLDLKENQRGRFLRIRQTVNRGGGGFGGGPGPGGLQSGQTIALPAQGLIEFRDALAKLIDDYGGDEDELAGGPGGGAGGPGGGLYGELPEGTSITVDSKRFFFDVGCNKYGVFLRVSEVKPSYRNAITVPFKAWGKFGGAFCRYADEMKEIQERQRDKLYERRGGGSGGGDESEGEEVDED

[2] = biological target: T2, NHis-Purβ III (Mus musculus, UniProt O35295 209-303); experiment: ssDNA-binding ELISA
T2 sequence: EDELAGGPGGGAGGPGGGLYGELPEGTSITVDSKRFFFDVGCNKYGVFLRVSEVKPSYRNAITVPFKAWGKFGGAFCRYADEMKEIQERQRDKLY

[3] = biological target: T3, NHis-Purβ I-II-III (Mus musculus, UniProt O35295 41-303); experiment: ssDNA-binding ELISA
T3 sequence: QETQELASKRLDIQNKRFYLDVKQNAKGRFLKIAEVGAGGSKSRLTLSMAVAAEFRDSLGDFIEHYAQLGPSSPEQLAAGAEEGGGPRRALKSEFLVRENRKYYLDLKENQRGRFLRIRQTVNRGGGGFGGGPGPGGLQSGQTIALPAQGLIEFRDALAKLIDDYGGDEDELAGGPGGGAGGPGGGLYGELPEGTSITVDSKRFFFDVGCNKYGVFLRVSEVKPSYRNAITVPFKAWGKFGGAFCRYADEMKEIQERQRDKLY

[4] = biological target: T1, NHis-Purβ (full-length); experiment: competition
[5] = biological target: T3, NHis-Purβ I-II-III; experiment: competition

B1: PE32-bF (ssDNA)
DNA: GGGAGCAGAACAGAGGAATGCAGTGGAAGAGA
apparent K (half saturation) [1]: 0.16 ± 0.05 nM
apparent K (half saturation) [2]: 1.8 ± 0.74 nM
apparent K (half saturation) [3]: 0.22 ± 0.05 nM
IC50 [4]: 1.2 ± 0.2 nM
IC50 [5]: 1 ± 0.3 nM
